Blank lines part the entries; values can stand above or below the binder they belong to.
Key:
[1] = molecular target: T1, Flag-WWP1 ΔWW domain (deletion 341-547) (Homo sapiens (Human), UniProt Q9H0M0 1-922); assay: co-immunoprecipitation from 293 cells: IP Flag, WB PTEN
T1 construct: The two kept ranges are counted on the 922-residue WWP1 entry; not shown: Flag tag
T1 sequence: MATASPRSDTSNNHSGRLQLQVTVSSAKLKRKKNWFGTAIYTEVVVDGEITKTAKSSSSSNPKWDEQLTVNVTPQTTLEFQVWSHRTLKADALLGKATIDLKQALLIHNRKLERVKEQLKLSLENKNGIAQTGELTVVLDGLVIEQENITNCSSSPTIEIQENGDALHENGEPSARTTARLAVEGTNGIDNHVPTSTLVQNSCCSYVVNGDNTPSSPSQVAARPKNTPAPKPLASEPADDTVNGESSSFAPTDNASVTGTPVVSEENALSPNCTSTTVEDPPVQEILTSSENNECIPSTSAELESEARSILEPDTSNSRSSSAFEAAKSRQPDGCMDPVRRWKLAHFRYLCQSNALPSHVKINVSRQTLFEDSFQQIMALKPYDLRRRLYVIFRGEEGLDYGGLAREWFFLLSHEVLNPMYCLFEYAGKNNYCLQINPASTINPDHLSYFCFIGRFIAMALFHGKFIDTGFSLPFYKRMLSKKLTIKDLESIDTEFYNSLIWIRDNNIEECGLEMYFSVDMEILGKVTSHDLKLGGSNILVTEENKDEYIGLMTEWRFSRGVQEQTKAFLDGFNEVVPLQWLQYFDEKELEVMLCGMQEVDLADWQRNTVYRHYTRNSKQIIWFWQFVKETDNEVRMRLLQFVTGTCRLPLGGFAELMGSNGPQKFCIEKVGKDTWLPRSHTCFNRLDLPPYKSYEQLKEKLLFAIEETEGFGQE
Experimental: Lysates of 293 cells transfected with indicated constructs were analysed by immunoprecipitation and/or western blot with indicated antibodies.
(§1) Western Blotting and Immunoprecipitation. For western blotting, cells were lysed in RIPA buffer (Boston BioProducts) supplemented with protease (Roche) and phosphatase (Roche) inhibitor. Proteins were separated on NuPAGE 4-12% Bis-Tris gradient gels (Invitrogen), transferred to polyvinylidine difluoride membranes (Immobilon P, Millipore) and the blots were probed with the indicated antibodies. For immunoprecipitation, PC3, 293T and MEF cells were transfected with the indicated expression vectors by using LIPOFECTAMIN 2000 (Life Technologies). 24 hours after transfection, cells were lysed in RIPA buffer with protease (Roche) and phosphatase (Roche) inhibitor. 500 μg of total lysates were pre-cleared for 30 minutes at 4° C., and then immunoprecipitated with anti-Myc (Cell Signaling Technology 9B11, 1:500), or anti-PTEN (Cell Signaling Technology 9559, 1:500) antibody overnight at 4° C. The Protein-A or Protein-G sepharose beads (GE Healthcare) were then added and incubated for another 2 hours. The immunoprecipitates were washed with RIPA buffer three times. […]

Flag-WWP1 [2] = molecular target: T2, Flag-WWP1 (Homo sapiens (Human), UniProt Q9H0M0 1-922); assay: co-immunoprecipitation: IP Flag, WB PTEN
T2 construct: also called full-length Flag-WWP1; recombinant Flag-WWP1; not shown: Flag tag

Flag-WWP1 [3] = molecular target: T2, Flag-WWP1; assay: recombinant Flag-WWP1 incubated with immunopurified recombinant NEDD4-1, western blot (FIG. 2C)
Experimental: FIG. 2C is a Western blot showing that WWP1 binds NEDD4-1 in vitro. Recombinant Flag-WWP1 were incubated with immunopurified recombinant NEDD4-1, and then analysed by western blot.

[4] = molecular target: T3, WW domain containing E3 ubiquitin protein ligase 1 (WWP1) (human, UniProt Q9H0M0 1-922, limits assumed); assay: anti-PTEN immunoprecipitation from DU145 cells, western blot (FIG. 2B); both ligases found in the same complex
T3 construct: also called endogenous WWP1; WW domain-containing protein-1

[5] = molecular target: T4, Phosphatase And Tensin Homolog Deleted On Chromosome Ten (PTEN) (human, UniProt P60484 1-403); assay: co-immunoprecipitation with anti-NEDD4 antibody from PWRE-1 cell lysates after 16 h normoxia (N) or hypoxia (H), western blot
T4 construct: also called endogenous PTEN; PTEN WT
Experimental: FIG. 13D is a Western blot showing that NEDD4-1 switches its interaction proteins under different physiological conditions. PWRE-1 cells were cultured in normoxic or hypoxic conditions for 16 hours. Total cell lysates were immunoprecipitated with anti-NEDD4 antibody, and then examined by western blot with indicated antibodies.
as §1

[6] = molecular target: T3, WW domain containing E3 ubiquitin …; assay: immunoprecipitation of exogenous PTEN from DU145 cells, mass spectrometry (FIG. 2A)
From the text: (§2) FIG. 2A is a Western blot. Lysates from DU145 cells transfected with HA-PTEN were immunoprecipitated with an anti-PTEN antibody followed by mass-spectrometric peptide sequencing. WWP1 and NEDD4-1 were identified.
(§3) In order to identify the E3 ligases that induce PTEN atypical K27-linked poly-ubiquitination, exogenous PTEN was immunoprecipitated from DU145 cells, followed by identification of the proteins that interacted with PTEN by mass spectrometry (FIG. 2A; FIG. 18).

[7] = molecular target: T5, ATP dependent RNA helicase A (human (endogenous protein of DU145 …, UniProt Q08211)); assay: anti-PTEN immunoprecipitation from DU145 cells transfected with HA-PTEN, SDS-PAGE, mass-spectrometric peptide sequencing of the bands (association in the precipitate)
T5 construct: endogenous, identified by mass spectrometry
From the text: as §2, §3

[8] = molecular target: T6, Poly [ADP-ribose] polymerase 1 (human (endogenous protein of DU145 …, UniProt P09874)); assay: as above
T6 construct: endogenous, identified by mass spectrometry
From the text: as §2, §3

[9] = molecular target: Isoform 2 of Telomere-associated protein RIF1; assay: as above
From the text: as §2, §3

[10] = molecular target: T7, Sperm-associated antigen 5 (human (endogenous protein of DU145 …, UniProt Q96R06)); assay: as above
T7 construct: endogenous, identified by mass spectrometry
T7 sequence (looked up): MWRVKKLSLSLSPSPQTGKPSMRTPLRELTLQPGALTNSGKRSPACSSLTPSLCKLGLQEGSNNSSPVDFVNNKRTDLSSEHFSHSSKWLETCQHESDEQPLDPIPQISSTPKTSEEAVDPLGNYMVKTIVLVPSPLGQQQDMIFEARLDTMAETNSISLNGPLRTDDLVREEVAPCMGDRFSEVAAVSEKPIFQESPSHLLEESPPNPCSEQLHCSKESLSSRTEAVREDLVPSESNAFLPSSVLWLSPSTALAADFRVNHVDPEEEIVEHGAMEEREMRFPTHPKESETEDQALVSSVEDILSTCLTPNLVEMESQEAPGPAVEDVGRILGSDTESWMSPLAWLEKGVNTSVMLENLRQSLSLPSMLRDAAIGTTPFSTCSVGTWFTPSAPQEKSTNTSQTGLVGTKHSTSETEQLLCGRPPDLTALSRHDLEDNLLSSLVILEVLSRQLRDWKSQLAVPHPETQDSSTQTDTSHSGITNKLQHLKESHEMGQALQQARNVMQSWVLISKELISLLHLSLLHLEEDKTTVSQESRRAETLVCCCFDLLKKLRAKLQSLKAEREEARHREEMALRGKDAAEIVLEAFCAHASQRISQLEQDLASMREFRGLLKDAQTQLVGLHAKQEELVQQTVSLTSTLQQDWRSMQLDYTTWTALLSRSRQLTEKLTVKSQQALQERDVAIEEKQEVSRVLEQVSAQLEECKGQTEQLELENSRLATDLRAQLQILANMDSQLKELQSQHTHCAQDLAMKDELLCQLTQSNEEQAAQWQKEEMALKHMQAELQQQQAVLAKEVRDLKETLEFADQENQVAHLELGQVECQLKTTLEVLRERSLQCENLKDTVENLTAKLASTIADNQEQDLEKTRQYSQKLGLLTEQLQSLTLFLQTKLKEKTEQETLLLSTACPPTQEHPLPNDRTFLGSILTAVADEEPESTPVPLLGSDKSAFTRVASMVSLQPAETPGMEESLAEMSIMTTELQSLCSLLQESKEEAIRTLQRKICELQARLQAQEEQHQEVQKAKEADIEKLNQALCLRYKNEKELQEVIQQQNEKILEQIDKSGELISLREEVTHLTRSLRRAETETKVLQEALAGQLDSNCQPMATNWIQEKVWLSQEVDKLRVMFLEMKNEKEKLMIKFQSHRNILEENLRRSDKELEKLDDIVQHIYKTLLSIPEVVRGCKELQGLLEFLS
From the text: as §2, §3

[11] = molecular target: the molecule itself; assay: self-association of PTEN in Wwp1-/- against Wwp1+/+ MEFs, non-reducing/non-denaturing gel (FIG. 5F); similar results in Nedd4-/- MEFs (FIG. 5I)
From the text: Similar results were also obtained in Nedd4^{-/-} MEFs (FIG. 5I, FIG. 5J).
as §1, with “times. In denaturing conditions, standard Laemmli-Buffer with 5% final concentration of β-mercaptoethanol was added to the samples, which were then boiled and separated on NuPAGE 4-12% Bis-Tris gradient gels (Invitrogen).” for “times.”

T6 sequence (P09874 2-1014 limits assumed): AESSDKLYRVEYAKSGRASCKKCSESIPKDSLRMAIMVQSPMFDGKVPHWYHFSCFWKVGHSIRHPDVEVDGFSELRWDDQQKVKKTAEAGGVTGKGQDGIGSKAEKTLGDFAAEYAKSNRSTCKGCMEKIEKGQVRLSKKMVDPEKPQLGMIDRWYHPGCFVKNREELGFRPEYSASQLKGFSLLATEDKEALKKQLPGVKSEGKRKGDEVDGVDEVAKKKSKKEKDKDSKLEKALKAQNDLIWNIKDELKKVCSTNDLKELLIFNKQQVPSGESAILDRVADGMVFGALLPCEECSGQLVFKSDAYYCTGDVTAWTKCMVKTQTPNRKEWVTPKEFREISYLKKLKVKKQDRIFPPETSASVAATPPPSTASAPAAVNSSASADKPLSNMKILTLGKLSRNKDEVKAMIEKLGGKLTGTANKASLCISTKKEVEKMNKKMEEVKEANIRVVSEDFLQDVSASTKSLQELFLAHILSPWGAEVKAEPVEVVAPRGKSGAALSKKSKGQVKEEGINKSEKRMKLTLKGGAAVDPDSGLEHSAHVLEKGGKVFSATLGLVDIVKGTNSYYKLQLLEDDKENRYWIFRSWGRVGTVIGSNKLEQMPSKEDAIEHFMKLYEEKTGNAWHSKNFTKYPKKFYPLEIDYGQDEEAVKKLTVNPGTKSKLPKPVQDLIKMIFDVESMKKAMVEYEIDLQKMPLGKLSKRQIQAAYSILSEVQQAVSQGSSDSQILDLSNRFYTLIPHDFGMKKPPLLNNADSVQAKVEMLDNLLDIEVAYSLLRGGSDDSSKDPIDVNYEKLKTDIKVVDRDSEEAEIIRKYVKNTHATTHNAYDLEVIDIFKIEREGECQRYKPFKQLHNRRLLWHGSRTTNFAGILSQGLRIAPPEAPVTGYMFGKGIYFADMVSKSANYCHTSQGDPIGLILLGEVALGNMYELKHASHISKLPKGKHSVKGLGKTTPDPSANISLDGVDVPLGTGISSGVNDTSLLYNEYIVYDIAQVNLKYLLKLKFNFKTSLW
T5 sequence (Q08211 whole entry): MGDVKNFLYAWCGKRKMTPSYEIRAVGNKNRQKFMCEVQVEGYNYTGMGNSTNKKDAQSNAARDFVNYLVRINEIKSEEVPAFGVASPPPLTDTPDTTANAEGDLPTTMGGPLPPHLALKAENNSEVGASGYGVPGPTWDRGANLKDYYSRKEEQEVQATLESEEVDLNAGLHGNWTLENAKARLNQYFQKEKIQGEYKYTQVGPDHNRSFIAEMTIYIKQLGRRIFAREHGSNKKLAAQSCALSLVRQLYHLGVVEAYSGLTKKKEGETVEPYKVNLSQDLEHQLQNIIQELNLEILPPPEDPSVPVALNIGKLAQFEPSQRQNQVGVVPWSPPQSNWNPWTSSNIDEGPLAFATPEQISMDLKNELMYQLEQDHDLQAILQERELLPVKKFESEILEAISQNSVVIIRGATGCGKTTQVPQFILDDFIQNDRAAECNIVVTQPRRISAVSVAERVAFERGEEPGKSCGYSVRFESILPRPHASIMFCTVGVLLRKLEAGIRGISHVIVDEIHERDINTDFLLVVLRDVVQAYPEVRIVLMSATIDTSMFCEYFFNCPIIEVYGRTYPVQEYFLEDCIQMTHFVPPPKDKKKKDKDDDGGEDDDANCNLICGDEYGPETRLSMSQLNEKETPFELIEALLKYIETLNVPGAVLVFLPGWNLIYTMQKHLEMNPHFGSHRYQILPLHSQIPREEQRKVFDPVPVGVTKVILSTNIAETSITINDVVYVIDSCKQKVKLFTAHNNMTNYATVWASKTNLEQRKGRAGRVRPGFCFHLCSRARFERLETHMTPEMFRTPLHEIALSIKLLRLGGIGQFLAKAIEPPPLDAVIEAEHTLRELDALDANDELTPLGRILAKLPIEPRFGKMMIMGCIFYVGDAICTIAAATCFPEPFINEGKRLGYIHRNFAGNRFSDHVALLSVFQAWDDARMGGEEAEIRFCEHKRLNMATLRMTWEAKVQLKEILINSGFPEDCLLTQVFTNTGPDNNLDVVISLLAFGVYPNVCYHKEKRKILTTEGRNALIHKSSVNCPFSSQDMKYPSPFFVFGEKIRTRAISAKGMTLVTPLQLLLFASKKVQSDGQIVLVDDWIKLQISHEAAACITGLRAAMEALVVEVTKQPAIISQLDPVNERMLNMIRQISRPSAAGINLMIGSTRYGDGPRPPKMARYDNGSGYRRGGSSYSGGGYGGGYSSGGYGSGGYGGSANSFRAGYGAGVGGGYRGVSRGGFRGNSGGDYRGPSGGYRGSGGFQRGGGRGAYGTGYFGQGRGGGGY
Isoform 2 of Telomere-associated protein RIF1, sequence (chain, as listed by the source limits assumed): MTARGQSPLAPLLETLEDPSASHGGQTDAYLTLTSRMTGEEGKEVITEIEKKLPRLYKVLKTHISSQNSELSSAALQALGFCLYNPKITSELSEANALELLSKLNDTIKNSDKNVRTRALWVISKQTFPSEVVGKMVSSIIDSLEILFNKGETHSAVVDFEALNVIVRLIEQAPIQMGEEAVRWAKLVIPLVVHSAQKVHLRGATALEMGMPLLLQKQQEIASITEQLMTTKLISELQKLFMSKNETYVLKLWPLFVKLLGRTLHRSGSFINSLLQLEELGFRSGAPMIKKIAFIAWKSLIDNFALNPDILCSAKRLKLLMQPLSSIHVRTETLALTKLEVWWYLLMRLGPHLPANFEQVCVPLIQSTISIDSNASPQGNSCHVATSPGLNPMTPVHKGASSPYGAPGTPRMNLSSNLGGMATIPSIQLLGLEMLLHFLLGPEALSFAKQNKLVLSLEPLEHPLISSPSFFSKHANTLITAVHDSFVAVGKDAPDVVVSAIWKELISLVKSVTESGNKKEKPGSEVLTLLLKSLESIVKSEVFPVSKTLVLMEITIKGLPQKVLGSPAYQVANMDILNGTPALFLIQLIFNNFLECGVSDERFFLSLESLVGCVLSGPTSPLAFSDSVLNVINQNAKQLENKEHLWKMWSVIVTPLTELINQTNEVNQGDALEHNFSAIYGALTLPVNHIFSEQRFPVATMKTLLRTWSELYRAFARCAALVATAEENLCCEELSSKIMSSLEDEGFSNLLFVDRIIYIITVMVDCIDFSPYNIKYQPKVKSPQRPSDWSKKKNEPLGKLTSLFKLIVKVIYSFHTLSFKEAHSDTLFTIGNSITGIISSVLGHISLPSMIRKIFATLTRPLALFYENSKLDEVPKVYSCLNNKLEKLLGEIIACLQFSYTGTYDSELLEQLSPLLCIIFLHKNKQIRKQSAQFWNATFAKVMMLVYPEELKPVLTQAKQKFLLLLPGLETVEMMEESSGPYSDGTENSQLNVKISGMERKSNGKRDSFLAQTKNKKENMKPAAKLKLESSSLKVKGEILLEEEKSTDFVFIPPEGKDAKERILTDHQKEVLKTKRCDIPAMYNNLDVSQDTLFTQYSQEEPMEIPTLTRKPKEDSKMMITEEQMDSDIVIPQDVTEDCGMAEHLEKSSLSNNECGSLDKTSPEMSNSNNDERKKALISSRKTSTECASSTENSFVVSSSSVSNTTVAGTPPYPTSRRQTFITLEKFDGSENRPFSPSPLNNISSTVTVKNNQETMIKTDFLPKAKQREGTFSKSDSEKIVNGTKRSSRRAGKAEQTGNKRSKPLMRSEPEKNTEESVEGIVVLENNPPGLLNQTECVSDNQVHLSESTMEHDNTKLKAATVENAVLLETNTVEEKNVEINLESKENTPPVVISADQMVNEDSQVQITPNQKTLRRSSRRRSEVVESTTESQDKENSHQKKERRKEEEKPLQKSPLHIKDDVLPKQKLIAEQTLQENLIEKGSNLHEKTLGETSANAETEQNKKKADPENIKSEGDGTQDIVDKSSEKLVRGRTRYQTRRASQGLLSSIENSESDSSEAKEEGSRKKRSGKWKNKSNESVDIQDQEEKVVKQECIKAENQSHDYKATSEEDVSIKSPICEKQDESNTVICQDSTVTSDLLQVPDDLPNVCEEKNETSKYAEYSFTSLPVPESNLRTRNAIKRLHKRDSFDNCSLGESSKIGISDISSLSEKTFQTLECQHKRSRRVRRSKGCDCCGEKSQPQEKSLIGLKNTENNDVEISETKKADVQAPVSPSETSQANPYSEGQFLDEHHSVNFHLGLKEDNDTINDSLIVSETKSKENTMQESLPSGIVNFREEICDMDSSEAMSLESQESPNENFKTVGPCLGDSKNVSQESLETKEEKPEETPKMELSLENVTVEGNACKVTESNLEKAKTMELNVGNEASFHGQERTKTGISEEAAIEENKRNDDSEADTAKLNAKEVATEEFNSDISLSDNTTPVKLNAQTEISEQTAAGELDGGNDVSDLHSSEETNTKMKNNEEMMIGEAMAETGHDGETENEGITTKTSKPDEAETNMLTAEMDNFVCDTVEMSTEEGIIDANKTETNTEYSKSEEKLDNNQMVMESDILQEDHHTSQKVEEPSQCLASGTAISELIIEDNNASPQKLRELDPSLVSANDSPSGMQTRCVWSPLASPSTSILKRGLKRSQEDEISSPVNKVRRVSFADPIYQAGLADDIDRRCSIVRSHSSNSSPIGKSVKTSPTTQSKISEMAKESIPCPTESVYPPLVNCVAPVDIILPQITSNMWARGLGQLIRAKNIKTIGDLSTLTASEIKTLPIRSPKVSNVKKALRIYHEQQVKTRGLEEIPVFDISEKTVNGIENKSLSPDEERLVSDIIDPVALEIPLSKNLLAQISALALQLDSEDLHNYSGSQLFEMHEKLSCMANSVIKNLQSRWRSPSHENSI

- binding result [1]: no binding
B1: Myc-PTEN (enzyme)
chain: not shown
notes: also called pcDNA3-Myc-PTEN; not shown: Myc tag

B2: PTEN 4E mutant (enzyme)
chain: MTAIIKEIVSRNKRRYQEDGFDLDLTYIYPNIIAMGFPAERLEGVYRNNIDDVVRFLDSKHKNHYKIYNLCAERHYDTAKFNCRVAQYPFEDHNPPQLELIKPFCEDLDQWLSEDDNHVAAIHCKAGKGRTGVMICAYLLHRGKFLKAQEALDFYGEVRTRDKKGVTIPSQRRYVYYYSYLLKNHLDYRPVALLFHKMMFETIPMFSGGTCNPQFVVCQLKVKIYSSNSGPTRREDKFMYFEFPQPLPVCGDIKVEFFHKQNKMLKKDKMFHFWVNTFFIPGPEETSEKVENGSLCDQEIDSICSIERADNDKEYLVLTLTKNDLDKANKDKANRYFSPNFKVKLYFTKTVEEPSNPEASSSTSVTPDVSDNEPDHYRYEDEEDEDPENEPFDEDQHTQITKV
notes: also called pcDNA3-Myc-PTEN 4E; phosphomimetic 4E; not shown: Myc tag by the plasmid list
- binding result (Flag-WWP1 [2]): no binding

- binding result (Flag-WWP1 [3]): binds
- binding result [4]: binds
- binding result [5]: binds
B3: Neural Precursor Cell Expressed Developmentally Down-Regulated Protein 4 polypeptide (NEDD4-1) (enzyme)
chain: MATCAVEVFGLLEDEENSRIVRVRVIAGIGLAKKDILGASDPYVRVTLYDPMNGVLTSVQTKTIKKSLNPKWNEEILFRVHPQQHRLLFEVFDENRLTRDDFLGQVDVPLYPLPTENPRLERPYTFKDFVLHPRSHKSRVKGYLRLKMTYLPKTSGSEDDNAEQAEELEPGWVVLDQPDAACHLQQQQEPSPLPPGWEERQDILGRTYYVNHESRRTQWKRPTPQDNLTDAENGNIQLQAQRAFTTRRQISEETESVDNRESSENWEIIREDEATMYSNQAFPSPPPSSNLDVPTHLAEELNARLTIFGNSAVSQPASSSNHSSRRGSLQAYTFEEQPTLPVLLPTSSGLPPGWEEKQDERGRSYYVDHNSRTTTWTKPTVQATVETSQLTSSQSSAGPQSQASTSDSGQQVTQPSEIEQGFLPKGWEVRHAPNGRPFFIDHNTKTTTWEDPRLKIPAHLRGKTSLDTSNDLGPLPPGWEERTHTDGRIFYINHNIKRTQWEDPRLENVAITGPAVPYSRDYKRKYEFFRRKLKKQNDIPNKFEMKLRRATVLEDSYRRIMGVKRADFLKARLWIEFDGEKGLDYGGVAREWFFLISKEMFNPYYGLFEYSATDNYTLQINPNSGLCNEDHLSYFKFIGRVAGMAVYHGKLLDGFFIRPFYKMMLHKPITLHDMESVDSEYYNSLRWILENDPTELDLRFIIDEELFGQTHQHELKNGGSEIVVTNKNKKEYIYLVIQWRFVNRIQKQMAAFKEGFFELIPQDLIKIFDENELELLMCGLGDVDVNDWREHTKYKNGYSANHQVIQWFWKAVLMMDSEKRIRLLQFVTGTSRVPMNGFAELYGSNGPQSFTVEQWGTPEKLPRAHTCFNRLDLPPYESFEELWDKLQMAIENTQGFDGVD
notes: also called endogenous NEDD4-1; immunopurified recombinant NEDD4-1

- binding result [6]: binds
- binding result [7]: binds
- binding result [8]: binds
- binding result [9]: binds
- binding result [10]: binds
B4: HA-PTEN (enzyme)
chain: not shown
notes: Expressed in DU145 cells and immunoprecipitated with anti-PTEN antibody for mass spectrometry; also called exogenous PTEN; pcDNA3-HA-PTEN; not shown: HA tag

B5: PTEN of MEFs (mouse) (enzyme, UniProt O08586 2-403, looked up)
chain: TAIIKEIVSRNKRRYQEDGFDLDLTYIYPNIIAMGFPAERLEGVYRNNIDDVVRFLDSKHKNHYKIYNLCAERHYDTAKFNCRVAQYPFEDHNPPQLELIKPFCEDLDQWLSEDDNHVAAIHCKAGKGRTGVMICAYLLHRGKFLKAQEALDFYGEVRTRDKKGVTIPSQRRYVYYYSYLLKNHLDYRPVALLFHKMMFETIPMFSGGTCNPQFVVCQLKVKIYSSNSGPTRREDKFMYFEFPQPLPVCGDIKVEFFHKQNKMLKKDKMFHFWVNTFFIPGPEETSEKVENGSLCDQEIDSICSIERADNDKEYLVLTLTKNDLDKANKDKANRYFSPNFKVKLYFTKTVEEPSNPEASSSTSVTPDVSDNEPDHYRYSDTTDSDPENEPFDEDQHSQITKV
notes: also called PTEN in Wwp1+/+ and Wwp1-/- MEFs; PTEN in Nedd4+/+ and Nedd4-/- MEFs
- binding result [11]: binds
